Consider 1 molecule from US20140322233A1.

The target in test [1] is T1, human guanylyl cyclase C (GCC), full length (human), P25092. The test can be described thus: whole cell binding of radiolabeled ST-toxin, T84 cells (endogenous GCC).
The target in test [2] is T1, human guanylyl cyclase C (GCC), full …. The test can be described thus: whole cell binding of radiolabeled ST-toxin, HT-29-GCC#2/#5 cells.
The target in test [3] is human GCC, full length with myc tag (293-GCC#2 cells) (human), P25092. The test can be described thus: whole cell binding of radiolabeled ST-toxin, 293-GCC cells.
Sequence of human GCC, full length with myc tag (293-GCC#2 cells) (human), P25092 (P25092 24-1073): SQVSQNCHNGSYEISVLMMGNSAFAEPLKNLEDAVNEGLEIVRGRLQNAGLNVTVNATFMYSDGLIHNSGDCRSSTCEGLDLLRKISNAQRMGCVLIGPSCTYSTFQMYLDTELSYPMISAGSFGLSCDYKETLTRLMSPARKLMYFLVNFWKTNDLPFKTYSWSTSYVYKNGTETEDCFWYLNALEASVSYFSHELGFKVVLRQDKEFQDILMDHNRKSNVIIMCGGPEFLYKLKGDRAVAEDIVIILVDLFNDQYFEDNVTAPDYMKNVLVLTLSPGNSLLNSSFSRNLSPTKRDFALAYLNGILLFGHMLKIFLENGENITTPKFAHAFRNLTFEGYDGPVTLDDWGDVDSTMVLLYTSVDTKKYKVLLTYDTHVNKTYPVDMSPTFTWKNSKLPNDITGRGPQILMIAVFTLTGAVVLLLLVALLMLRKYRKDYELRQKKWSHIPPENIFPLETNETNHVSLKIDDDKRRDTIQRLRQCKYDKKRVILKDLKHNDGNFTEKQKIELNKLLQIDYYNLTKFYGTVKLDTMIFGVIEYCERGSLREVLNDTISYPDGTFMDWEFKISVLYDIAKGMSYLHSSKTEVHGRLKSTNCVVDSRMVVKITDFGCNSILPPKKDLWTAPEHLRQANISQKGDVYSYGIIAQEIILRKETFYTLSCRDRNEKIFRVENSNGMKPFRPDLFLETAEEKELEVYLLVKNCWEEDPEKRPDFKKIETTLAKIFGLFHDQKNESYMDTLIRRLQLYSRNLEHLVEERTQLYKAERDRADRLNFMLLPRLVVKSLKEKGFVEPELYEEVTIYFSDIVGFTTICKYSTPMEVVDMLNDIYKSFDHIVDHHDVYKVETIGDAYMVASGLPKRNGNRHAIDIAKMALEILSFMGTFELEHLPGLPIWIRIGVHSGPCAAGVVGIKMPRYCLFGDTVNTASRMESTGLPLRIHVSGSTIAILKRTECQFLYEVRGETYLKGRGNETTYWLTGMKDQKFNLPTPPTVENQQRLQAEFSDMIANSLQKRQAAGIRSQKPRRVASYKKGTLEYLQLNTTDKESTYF

T1 sequence (P25092 24-1073 limits assumed): as the sequence (P25092 24-1073) above

As to NTFYCCELCCNPACAGCY (modifications not checked) [heat-stable enterotoxin (ST) peptide], the Whole cell binding assay (receptor/cell) (receptor/cell) in test [1] came to 300000; in test [2], 100000; in test [3], 600000.
